# Measurements: patent US7871782B2, “Specific binding members against synaptophysin” (The University Court of the University of Aberdeen, priority 2004, dated 2011)
# B1: C1: monoclonal phage-antibody clone from pan 3 of Tomlinson I+J libraries, subcloned to give C1-3 scAb (protein)
# scFv: MAEVQLLESGGGLVQPGGSLRLSCAASGFTFSSYAMSWVRQAPGKGLEWVSTIAASGPSTGYADSVKGRFTISRDNSKNTLYLQMNSLRAEDTAVYYCAKTTAKFDYWGQGTLVTVSSGGGGSGGGGSGGGGSTDIQMTQSPSSLSASVGDRVTITCRASQSISSYLNWYQQKPGKAPKLLIYSASRLQSGVPSRFNGSGSGTDFTLTISSLQPEDFATYYCQQLQRKPTTFGQGTKVEIKRGAAA
# B2: C1-3 scAb: human single-chain antibody fragment with human Cκ domain and His tag, specific for synaptophysin peptide …; amino acid sequence SEQ ID NO 8 (protein)
# scFv: MAEVQLLESGGGLVQPGGSLRLSCAASGFTFSSYAMSWVRQAPGKGLEWVSTIAASGPSTGYADSVKGRFTISRDNSKNTLYLQMNSLRAEDTAVYYCAKTTAKFDYWGQGTLVTVSSGGGGSGGGGSGGGGSTDIQMTQSPSSLSASVGDRVTITCRASQSISSYLNWYQQKPGKAPKLLIYSASRLQSGVPSRFNGSGSGTDFTLTISSLQPEDFATYYCQQLQRKPTTFGQGTKVEIKRGAAAPSVFIF
# modifications: human Cκ domain and His tag; C1-3 amino acid sequence
# Tests used:
# HSCs = assay: Effect of scAb incubation on HSC viability (attachment, protein assay); assay type: cell-based, human; conditions: 3 hours incubation, 5 μg scAb or indicated chemical, FIG. 12
# Method: Effect of scAb incubation on HSC viability. HSCs seeded into 24 well plates were incubated in 0.3 mls culture medium containing 5 μg scAb or the indicated-chemical. Cells were incubated for 3 hours prior to removal of medium and washing with 1×PBS. Attachment (as a measure of viability) was determined by a direct protein assay in the culture wells.
# human HSCs [1] = assay: Fluorescence microscopy without fixation: effect of peptides and monensin on FITC-C1-3 scAb binding; assay type: cell-based; conditions: monensin 2.5 and 15 μM; for effect on FITC-C1-3 association/binding to HSCs: added with 10 μg FITC-C1-3 scAb, peptides 0.25-25 nmoles, FIG. 13
# Method: Effect of synaptophysin peptides and monensin on FITC-C1-3 scAb binding to human HSCs. Human HSCs seeded into 24 well plates were washed and incubated in 500 μl Hepes/HBSS per well for 1 hour containing either: 10 μg C1-3 scAb; 10 μg FITC-C1-3 scAb; 10 μg FITC-C1-3 scAb and 0.25 nmoles of the target peptide; 10 μg FITC-C1-3 scAb and 2.5 nmoles of the target peptide; 10 μg FITC-C1-3 scAb and 25 nmoles of the target peptide; 10 μg FITC-C1-3 scAb and 25 nmoles of the target peptide P1; 10 μg FITC-C1-3 scAb and 2.5 μM monensin; 10 μg FITC-C1-3 scAb and 15 μM monensin; 10 μg FITC-3A8 scAb (scAb raised to microcystin and not expected to bind to HSCs). Cells incubated with monensin were preincubated for 10 minutes. Just prior to addition of scAb, the medium was changed and cells were re-dosed with monensin. […] Bar=μm. Monen=monensin; P1=the […] peptide (SEQ ID NO 27); P2=the target peptide.
# HSCs seeded into 24 well plates were washed with Hepes/HBSS and then incubated at 37° C. in 500 μl/well Hepes/HBSS containing 10 μg scAb with or without additional compounds. After 1 hour, the cells were washed 3 times with 500 μl Hepes/HBSS. Cells were analysed using an Axiovert 100 microscope (Zeiss, Germany) using filter set #9 (BP 450-490 nm; LP 515 nm).
# human hepatocytes = assay: Fluorescence microscopy of FITC-labelled scAb with cells; assay type: cell-based
# Method: (§1) FITC-C1-3 scAb was tested for its ability to interact with hepatic stellate cells in culture by fluorescence microscopy. Human hepatic stellate cells were seeded (1×10^3 cells per chamber) on chamber slides (Nunclon, Naperville) in complete medium prior to experimentation. Cells were washed twice in phosphate buffered saline (PBS) and incubated in 500 μl Hepes/HBSS buffer (0.14M NaCl, 5.4 mM KCl, 0.34 mM Na2HPO4, 0.94 mm KH2PO4, 5.6 mM glucose, 1 mM CaCl2, 6 mM HEPES, 4 mM NaHCO3 pH7.4) containing 10 μg scAb or FITC-C1-3 scAb for 1 h at room temperature in the dark. The cells were then washed in PBS and mounted with Vectashield mounting medium (Vector laboratories, Burlingame, Calif.) containing 4′,6′ diamindino-2 phenylindole (DAPI) to stain cell nuclei and coverslips applied. Florescence microscopy was carried out using a Zeiss Axeola II microscope with a Photometrics Sensis camera, and data captured using the Smart Capture programme. Human hepatocytes (UK Human Tissue Bank) were originally cultured in a collagen-coated 24 well plate (1×10^5/well) and maintained in William's medium E supplemented with 80 units/ml penicillin and 80 μg/ml streptomycin.
# [2] = tested on: human hepatic stellate cells; assay: as above; assay type: cell-based; conditions: 10 μg scAb, 1 h, room temperature
# Method: as §1
# target peptide-BSA = molecular target: T1, target peptide-BSA (Homo sapiens, UniProt P08247); assay: Monoclonal phage-antibody ELISA; assay type: binding; conditions: FIG. 3
# T1 construct: host or cells: chemical synthesis (Fmoc), no expression host
# Method: C1-phage antibody clone (monoclonal) assayed for binding to the target peptide-BSA as outlined for FIG. 2.
# (§2) Purified polyclonal phage enriched for binders to peptides were assayed by ELISA using flat bottomed 96-well Immulon-4 microtitre plates (Dynex, Sussex, UK) coated with 2 μg/well protein (peptide-BSA or BSA) in PBS overnight at 4° C. Bound phage were detected by incubation with 100 μl/well horseradish peroxidase (HRP) conjugated anti-M13 antibody (AmershamPharmacia) for 1 h, washing, and incubation with 100 μl/well tetramethylbenzidine dihydrochloride solution (KPL Laboratories, Gaithersburg, Md.). Reactions were stopped with 50 μl/well 1M H2SO4, and the absorbance at 450 nm read using a microtitre plate reader.
# Individual colonies from pan 3 were grown in 96 well plates (Greiner) and phage-antibodies rescued with M13 KO7.
# Specificity of phage supernatants for binding to peptide-BSA and BSA alone was determined by ELISA. The scFv encoding regions of positive clones were subcloned in to the expression vector pIMS147. This is a modification of the IPTG (isopropyl-β-D-thiogalactopyranoside) inducible pUC based vector pIMS100 (Hayhurst A. et al. Protein Expr Purif 1999; 15:336-43). The addition of a hexa-histadine tag permits purification of the expressed scAb by immobilised metal ion chelate affinity chromatography. Vectors were transformed into E. coli TG1 or XL1 blue cells.
# [3] = molecular target: T2, synaptophysin in human HSCs (Homo sapiens, UniProt P08247); assay: Western analysis of cell extracts probed with C1-3 scAb; assay type: binding; conditions: human HSC extract, FIG. 8
# T2 construct: endogenous in cells; host or cells: human hepatic stellate cells (patient-derived, AH4)
# T2 sequence (P08247 whole entry): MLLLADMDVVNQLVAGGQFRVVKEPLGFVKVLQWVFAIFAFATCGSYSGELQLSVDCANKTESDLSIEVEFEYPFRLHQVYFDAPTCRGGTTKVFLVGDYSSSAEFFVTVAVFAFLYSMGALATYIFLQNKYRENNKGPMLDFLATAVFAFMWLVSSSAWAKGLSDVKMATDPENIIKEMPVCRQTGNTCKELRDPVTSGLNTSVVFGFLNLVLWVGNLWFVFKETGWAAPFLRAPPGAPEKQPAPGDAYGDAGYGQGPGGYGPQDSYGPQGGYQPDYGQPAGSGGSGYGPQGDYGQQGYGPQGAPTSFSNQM
# Method: (§3) Western blot showing the binding of C1-3 scAb to the target peptide. Cell extracts (5 μg/lane) were subjected to Western blotting and membranes probed with C1-3 scAb followed by incubation with HRP conjugated anti-human Cκ light chain antibody and detection using ECL reagent. rHSCs—rat hepatic stellate cells; hHSCs—human hepatic stellate cells (AH4=anonymous patient code); rHCs—rat hepatocytes; B13—rat pancreatic stem cell; B13-H—rat pancreatic stem cell after trans-differentiation into an hepatocyte.
# (§4) Western blotting was performed essentially as described in Wright M. C. et al. Mol Pharmacol 1996; 50:856-63.
# [4] = molecular target: T3, synaptophysin in rat HSCs (Rattus norvegicus, UniProt P07825); assay: as above; assay type: binding; conditions: rat HSC extract, FIG. 8
# T3 construct: endogenous in cells; host or cells: rat hepatic stellate cells
# T3 sequence (P07825 whole entry): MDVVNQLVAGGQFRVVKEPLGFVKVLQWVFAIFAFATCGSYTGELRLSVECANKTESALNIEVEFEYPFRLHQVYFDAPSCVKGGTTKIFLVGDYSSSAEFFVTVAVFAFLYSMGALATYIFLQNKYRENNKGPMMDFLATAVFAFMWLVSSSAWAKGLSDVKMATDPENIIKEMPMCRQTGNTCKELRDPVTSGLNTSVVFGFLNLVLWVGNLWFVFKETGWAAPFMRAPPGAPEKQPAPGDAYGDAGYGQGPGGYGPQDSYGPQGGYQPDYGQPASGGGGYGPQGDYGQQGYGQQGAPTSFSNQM
# Method: as §3, §4
# [5] = tested on: hepatic stellate cell and hepatocytes co-cultured; assay type: cell-based, human
# Method: For co-culture experiments, hepatic stellate cells were seeded into hepatocytes cultures (1×10^3 cells per well) and cultured for 24 h prior to experimentation. The C1-3 or FITC-C1-3 scAb was incubated as outlined for pure hepatic stellate cell cultures except that after 1 hour incubation and washing, the cells were harvested by trypsinisation and centrifugation at 1000 rpm for 5 min. The cell pellet was then resuspended in 0.4% formaldehyde/10^6 cells, applied onto glass slides by cytocentrifugation and mounted with Vectashield containing DAPI. Slides were viewed by fluorescence microscopy as before.
# human HSCs [6] = assay: Uptake of scAb and conjugates by human HSCs in culture (Western blot of medium); assay type: cell-based; conditions: 5 μg scAb in 0.3 mls medium, FIG. 11
# Method: Uptake of C1-3 scAb and C1-3-conjugates by human HSCs in culture. HSCs seeded into 24 well plates were incubated in 0.3 mls culture medium containing 5 μg scAb. Samples of medium were taken at the indicated times and subjected to Western blotting to detect scAb using HRP-conjugated anti-human Cκ light chain antibody (UPPER PANEL) and serum albumin (LOWER PANEL) as a loading control. Results typical of 4 separate experiments.
# HepG2 cells = assay: Fluorescence binding to cells; assay type: cell-based
# [7] = molecular target: T4, peptide YPFRLHQVYFDAPSC (SEQ ID NO 9) (Homo sapiens, UniProt P08247); assay: Expressed purified anti-peptide scAb ELISA; assay type: binding
# T4 construct: host or cells: chemical synthesis (Fmoc), no expression host
# Method: Expressed scAb was tested for its ability to interact with the peptide […] (SEQ ID NO: 9) by ELISA using anti-BSA-target peptide scAb. Wells of a 96 well plate were coated with BSA-target peptide or BSA and incubated with either C1-3 scAb (grey bars) or control scAb incubation buffer (clear bars) followed by extensive washing. Bound scAb was detected using the HRP conjugated anti-human Cκ light chain antibody and quantitated as outlined in methods section. Data are the mean and standard deviation of 3 separate determinations. ‘BSA-peptide 2’ is the target peptide.
# as §2
# Expressed scAb was tested for its ability to interact with peptide by ELISA essentially as outlined for polyclonal anti-peptide phage-antibody ELISAs. […]
# COS-7 cells = assay: Fluorescence binding to cells; assay type: cell-based
molecule,measurement,setting,value
CN(C)CCCN1c2ccccc2Sc2ccc(Cl)cc21 [chlorpromazine],toxicity to HSCs (attachment as measure of viability),HSCs,kill HSCs
CC[C@@]1([C@@H]2O[C@@H]([C@H]3O[C@@](O)(CO)[C@H](C)C[C@@H]3C)C[C@@H]2C)CC[C@H]([C@]2(C)CC[C@]3(C[C@H](O)[C@@H](C)[C@@H]([C@@H](C)[C@@H](OC)[C@H](C)C(=O)O)O3)O2)O1 [monensin],effect on FITC-C1-3 association/binding to HSCs,human HSCs [1],did not inhibit the total number of cells stained
same,effect on FITC-C1-3 uptake (nuclear FITC-C1-3 staining),human HSCs [1]; 10 minutes preincubation,reduced uptake
ATDPENIIKEMPMC (listed as Homo sapiens),effect on FITC-C1-3 association/binding to HSCs,human HSCs [1],did not significantly inhibit
"FITC-BSA: FITC labelled bovine serum albumin, specificity control [reference compound]",green fluorescence associated with human hepatocytes,human hepatocytes,displayed cytoplasmic foci of fluorescence
same,green fluorescence associated with hepatic stellate cells,[2],displayed cytoplasmic foci of fluorescence
YPFRLHQVYFDAPSC (listed as Homo sapiens) [C1-3 antigen],effect on FITC-C1-3 association/binding to HSCs,human HSCs [1],decreased FITC-C1-3 binding to HSCs in a dose-dependent manner
B1,binding response in monoclonal phage-antibody ELISA,target peptide-BSA,good binding response
B2,green fluorescence associated with human hepatocytes,human hepatocytes,no associated green fluorescence
same,green fluorescence associated with hepatic stellate cells,[2],No detectable green fluorescence
same,size of protein bound by scAb in Western analysis,[3],~32 kDa
same,cross-reaction with synaptophysin in rat HSCs,[4],did not cross-react
same,green fluorescence in hepatic stellate cell/hepatocyte co-cultures,[5],No significant green fluorescence
same,association with HSCs: change of culture medium concentration of scAb,human HSCs [6],reduction in culture medium concentrations
same,fluorescence binding to HepG2 cells,HepG2 cells,not detected
same,scAb bound to peptide-BSA relative to BSA alone,"[7]; ELISA, FIG. 7",approximately 8 times
same,recognition of the peptide in ELISA,[7]; expressed scAb from XL-1 blue E coli,specifically recognised the peptide
same,fluorescence binding to COS-7 cells,COS-7 cells,not detected
